Test [1] concerns the target T1, NK2 receptor (Homo sapiens, UniProt P21452).
T1 chain: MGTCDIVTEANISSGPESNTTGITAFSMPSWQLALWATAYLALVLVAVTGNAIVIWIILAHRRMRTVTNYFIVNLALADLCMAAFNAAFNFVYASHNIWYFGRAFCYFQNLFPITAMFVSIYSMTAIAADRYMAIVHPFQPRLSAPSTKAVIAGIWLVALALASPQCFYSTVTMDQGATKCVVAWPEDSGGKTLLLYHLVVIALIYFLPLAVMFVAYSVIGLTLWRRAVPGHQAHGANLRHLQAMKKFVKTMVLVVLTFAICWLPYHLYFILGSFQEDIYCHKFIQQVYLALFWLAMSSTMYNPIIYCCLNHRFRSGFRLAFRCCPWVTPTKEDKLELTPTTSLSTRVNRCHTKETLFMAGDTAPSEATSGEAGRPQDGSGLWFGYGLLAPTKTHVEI
Kind of test: [125I]-NKA displacement.

The target in test [2] is T2, NK1 receptor (Homo sapiens, UniProt P25103).
T2 chain: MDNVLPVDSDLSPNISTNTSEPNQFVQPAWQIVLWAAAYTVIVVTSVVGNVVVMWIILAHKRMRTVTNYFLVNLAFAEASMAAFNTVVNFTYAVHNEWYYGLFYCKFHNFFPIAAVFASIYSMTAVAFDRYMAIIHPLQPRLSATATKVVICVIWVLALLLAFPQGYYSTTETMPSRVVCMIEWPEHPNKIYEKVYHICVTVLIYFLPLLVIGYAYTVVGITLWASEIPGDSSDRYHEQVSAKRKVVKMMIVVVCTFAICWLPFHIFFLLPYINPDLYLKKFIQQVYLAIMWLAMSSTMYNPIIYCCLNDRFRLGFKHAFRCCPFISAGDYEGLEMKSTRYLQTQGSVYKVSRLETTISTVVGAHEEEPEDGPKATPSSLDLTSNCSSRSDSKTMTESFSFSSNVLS
The test is described as follows: [3H]-Septide displacement.

Non-standard residues stand in square brackets, D forms with d. No end group written: not given here. NMeL = CN[C@@H](CC(C)C)C(=O)O

Here are results for three molecules from article PMC6201908, “Affinity, potency, efficacy, and selectivity of neurokinin A analogs at human recombinant NK2 and NK1 receptors” (PLoS ONE, 2018).

For orientation: Ki means a measure of affinity in units of concentration, obtained from inhibition or displacement. A low value points to higher affinity.

B1: [Arg5,MeLeu9]-NKA(4-10) (peptide)
chain: DRFVG[NMeL]M-NH2
modifications: N-terminus assumed
SMILES: CSCC[C@H](NC(=O)[C@H](CC(C)C)N(C)C(=O)CNC(=O)[C@@H](NC(=O)[C@H](Cc1ccccc1)NC(=O)[C@H](CCCNC(=N)N)NC(=O)[C@@H](N)CC(=O)O)C(C)C)C(N)=O
With B1, the Ki in test [1] came to 0.12 nM; in test [2] it was 20.9 nM.

B2: [Arg5]-NKA(4-10) (peptide)
chain: DRFVGLM-NH2
Regarding B2, the Ki in test [1] is 0.31 nM; in test [2], 8.3 nM.

B3: [Lys5,MeLeu9]-NKA(4-10) (peptide)
chain: DKFVG[NMeL]M-NH2
With B3, the figures for the Ki in test [1] and in test [2] were 0.2 nM and 50.1 nM, respectively.
